The source of these data is US20220119492A1 (MEDIKINE, published 2022).

Bridge positions count the residues as written; N and C are the ends. Ends that are not written are not given here.

Assay [1] deals with T1, human IL-2Rβ (CD122 protein, Fc Tag) (27-239) (human, UniProt P14784 27-239).
T1 construct: range 27-239; Bought protein; also called hu-IL-2Rβ subunit; IL-2Rβ subunit; not shown: Fc tag of the bought protein
T1 sequence (looked up): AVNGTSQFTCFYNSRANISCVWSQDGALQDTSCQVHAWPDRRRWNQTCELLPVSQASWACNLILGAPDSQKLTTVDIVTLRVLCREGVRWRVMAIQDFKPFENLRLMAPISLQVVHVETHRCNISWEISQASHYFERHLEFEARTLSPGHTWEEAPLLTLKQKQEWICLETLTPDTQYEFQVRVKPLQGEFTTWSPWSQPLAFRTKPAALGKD
The experiment in a line: phage ELISA competition. The gist of the method:
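Competitive binding ELISA in which a phage tracer competes with test ligands for human IL-2Rβ-Fc; IC50 is derived from the absorbance signal across the ligand dilution series. Without washing, 50 μL of phage tracer was added for 45 min at 4° C. Bound phage was detected with TMB for 1 to 15 min at 25° C, followed by stop solution and absorbance at 450 nm.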
(In general: In an ELISA, binding on a coated surface is turned into a signal by an enzyme label.)

For assay [2], the target named is T1, human IL-2Rβ (CD122 protein, Fc Tag) …. The assay can be described thus: competition ELISA, peptide tracer. As to the method:
(§1) Binding of Fc fusions to IL-2Rβ and IL-2Rγc were measured using a competition binding ELISA with biotinylated peptide/NeutrAvidin-HRP tracer. ELISA plate was prepared as described in Example 27.
(§2) The plate was washed 4 times with PT (1×PBS, 0.05% Tween® 20) buffer. Fifty (50) μL of IL-2R ligands serially diluted in PBT was added to appropriate wells then incubated at 4° C. for 1 hr.
(§3) At the appropriate time, the precomplexed bn-peptide/NA-HRP tracer was diluted to 2-fold its predetermined binding EC80 (typically 30 to 10 nM) without washing. fifty (50) μL of bn-peptide/NA-HRP tracer was added to each well and incubated at 4° C. for 45 mins.

Assay [3] addresses T2, cynomolgus monkey IL-2Rβ subunit (cynomolgus monkey).
T2 construct: Bought protein; also called cyno-IL-2Rβ subunit
The experiment in a line: competition ELISA, peptide tracer. On the procedure:
as §1, §2, §3

T2 sequence (Q38J85 whole entry): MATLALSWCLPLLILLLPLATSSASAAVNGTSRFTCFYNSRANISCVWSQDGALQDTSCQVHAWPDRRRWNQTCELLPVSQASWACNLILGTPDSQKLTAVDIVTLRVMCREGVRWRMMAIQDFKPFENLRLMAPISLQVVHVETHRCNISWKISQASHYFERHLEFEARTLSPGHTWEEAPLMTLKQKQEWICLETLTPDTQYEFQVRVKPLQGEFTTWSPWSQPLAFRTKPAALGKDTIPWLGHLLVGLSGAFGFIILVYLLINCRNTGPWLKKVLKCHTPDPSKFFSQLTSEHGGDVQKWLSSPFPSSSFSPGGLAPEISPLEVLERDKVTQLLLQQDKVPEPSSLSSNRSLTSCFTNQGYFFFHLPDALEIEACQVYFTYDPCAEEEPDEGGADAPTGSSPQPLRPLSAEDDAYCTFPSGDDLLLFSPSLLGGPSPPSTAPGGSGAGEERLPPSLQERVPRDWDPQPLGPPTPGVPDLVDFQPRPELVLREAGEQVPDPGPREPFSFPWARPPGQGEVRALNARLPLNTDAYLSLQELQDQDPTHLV

B1: SEQ ID NO 2874 (peptide)
peptide: NWFHDCFLARVGDLCDLFLD
modifications: disulfide 6-15 (inferred)
In general, IC50 refers to the concentration needed to halve the response being measured. As for B1, in assay [1], the IC50 was under 100 µM.

B2: SEQ ID NO 3128 (peptide)
peptide: GGELLVDCFRVRVGELCDLFFGGG
With B2, the 50% inhibitory concentration (IC50) in assay [2] and in assay [3] was under 100 µM in each case.

B3: SEQ ID NO 3126 (peptide)
peptide: LVDCFKVKVGELCDLFFGGG
In the case of B3, the half-inhibitory concentration (IC50) in assay [2] and in assay [3] was under 100 µM throughout.

B4: SEQ ID NO 2871 (peptide)
peptide: HWFLDCFLANVGDLCDFFGN
Take B4: in assay [1], the half-inhibitory concentration (IC50) is under 100 µM.

B5: SEQ ID NO 2891 (peptide)
peptide: WYPCWGELCDLD
In the case of B5, in assay [1], the concentration for half-maximal inhibition (IC50) was under 100 µM.

B6: SEQ ID NO 2865 (peptide)
peptide: WGKLVRDCFLAKVGDLCDLFLW
In assay [1], B6 registered an IC50 of under 100 µM.

B7: SEQ ID NO 2873 (peptide)
peptide: EIFKDCLFANVGELCEIFPS
As for B7, the half-inhibitory concentration (IC50) in assay [1] is under 100 µM.

B8: SEQ ID NO 2861 (peptide)
peptide: RSLVDCFLVKVGDLCDFFNW
Molecule B8 yielded a half-maximal inhibitory concentration (IC50) in assay [1] of under 100 µM.

B9: SEQ ID NO 2879 (peptide)
peptide: QMVWWDCWSTQEGPVCELNWTA
For B9, in assay [1], the concentration for half-maximal inhibition (IC50) is under 100 µM.

B10: SEQ ID NO 2866 (peptide)
peptide: THVHDCFLAKVGDLCDLFIV
With B10, the half-inhibitory concentration (IC50) in assay [1] was under 100 µM.

B11: SEQ ID NO 2857 (peptide)
peptide: QWFHNCFLARVGDTCDLFLW
For the molecule B11, the concentration for half-maximal inhibition (IC50) in assay [1] is under 100 µM.

B12: SEQ ID NO 3107 (peptide)
peptide: GGELLVDCFKVKVGELCDLFF
Turning to B12, the concentration for half-maximal inhibition (IC50) in assay [2] and in assay [3] was under 100 µM in each case.

B13: SEQ ID NO 2870 (peptide)
peptide: DWLPDCYFANVGDLCSLFGS
The molecule B13 had an IC50 in assay [1] of under 100 µM.

B14: SEQ ID NO 3137 (peptide)
peptide: GGRYVHDCFIAQVGDLCDLFLH
Consider B14, for which the IC50 in assay [2] and in assay [3] was under 100 µM throughout.

B15: SEQ ID NO 2883 (peptide)
peptide: EFWGWQCWQEPLGWSCDLEWMD
With B15, the IC50 in assay [1] was under 100 µM.

B16: SEQ ID NO 3114 (peptide)
peptide: GGELLVDCFKVKVGELCDLFFG
Turning to B16, the half-maximal inhibitory concentration (IC50) in assay [2] and in assay [3] was under 100 µM each time.

B17: SEQ ID NO 2853 (peptide)
peptide: SWLSDLQDCYIAQVGDLCQI
For B17, the half-maximal inhibitory concentration (IC50) in assay [1] is under 100 µM.

B18: SEQ ID NO 2860 (peptide)
peptide: KWVHDCFLAKVGDVCDLFVV
In assay [1], B18 had an IC50 of under 100 µM.

B19: SEQ ID NO 2856 (peptide)
peptide: RLLRDCFLAKVGDLCELFVW
In turn, B19 had an IC50 in assay [1] of under 100 µM.

B20: SEQ ID NO 2889 (peptide)
peptide: WPCWALGELCDLD
B20 displayed an IC50 in assay [1] of under 100 µM.

B21: SEQ ID NO 2850 (peptide)
peptide: GGYYDCLIAEVGELCDIYGR
As to B21, in assay [1], the IC50 was under 100 µM.

B22: SEQ ID NO 2886 (peptide)
peptide: LVDCFKVKVGELCDLF
modifications: disulfide 4-13 (inferred)
The molecule B22 came in with an IC50 in assay [1] of under 100 µM.

B23: SEQ ID NO 3147 (peptide)
peptide: GGRYVHDCFIAQVGDLCDLFLHGG
Regarding B23, the IC50 in assay [2] and in assay [3] was under 100 µM each time.

B24: SEQ ID NO 3171 (peptide)
peptide: GGRYVHDCFIGQVGDLCDLFLHGG
Take B24: the IC50 in assay [2] and in assay [3] was under 100 µM each time.

B25: SEQ ID NO 3170 (peptide)
peptide: GGRYVHDCFAAQVGDLCDLFLHGG
With B25, the IC50 in assay [2] and in assay [3] was under 100 µM in each case.

B26: SEQ ID NO 3124 (peptide)
peptide: ELLVDCFKVKVGELCDLFFGGG
B26: the IC50 in assay [2] and in assay [3] was under 100 µM throughout.

B27: SEQ ID NO 2872 (peptide)
peptide: NWLPDCLFANVGELCDIFPW
In the case of B27, in assay [1], the IC50 was under 100 µM.

B28: SEQ ID NO 2862 (peptide)
peptide: RYLYDCFLALVGDLCVKFHQ
For the molecule B28, in assay [1], the half-inhibitory concentration (IC50) is under 100 µM.

B29: SEQ ID NO 2887 (peptide)
peptide: VHDCFIAQVGDLCDLF
Regarding B29, in assay [1], the 50% inhibitory concentration (IC50) is under 100 µM.

B30: SEQ ID NO 3125 (peptide)
peptide: LLVDCFKVKVGELCDLFFGGG
As to B30, the IC50 in assay [2] and in assay [3] was under 100 µM throughout.

B31: IL-2Rβγc ligand having SEQ ID NO: 1263 (peptide)
peptide: GGWYPCWMAQLGELCDLDGGGGSGGVVCQDWEGVELCWQGG
As to B31, the binding result in assay [2] is listed as “binds”.

B32: SEQ ID NO 3127 (peptide)
peptide: VDCFKVKVGELCDLFFGGG
B32: the 50% inhibitory concentration (IC50) in assay [2] and in assay [3] was under 100 µM in each case.

B33: SEQ ID NO 2881 (peptide)
peptide: WTCWLTQLGYDCNLDVVDQSLG
As for B33, in assay [1], the IC50 was under 100 µM.

B34: SEQ ID NO 3122 (peptide)
peptide: GGELLVDCFKVKVGELCDLF
In the case of B34, the IC50 in assay [2] and in assay [3] was under 100 µM throughout.

B35: SEQ ID NO 2855 (peptide)
peptide: RLASDWWDCYIAKVGELCDF
Turning to B35, in assay [1], the half-inhibitory concentration (IC50) is under 100 µM.

B36: SEQ ID NO 2859 (peptide)
peptide: RYVHDCFIAQVGDLCDLFLH
For B36, the concentration for half-maximal inhibition (IC50) in assay [1] is under 100 µM.

B37: SEQ ID NO 2882 (peptide)
peptide: DGSWYTCWFTQLGEWCEQDDAK
As to B37, the concentration for half-maximal inhibition (IC50) in assay [1] was under 100 µM.

B38: SEQ ID NO 2868 (peptide)
peptide: HGILDCYFAKVGELCELFDW
In the case of B38, the half-inhibitory concentration (IC50) in assay [1] is under 100 µM.

B39: SEQ ID NO 2888 (peptide)
peptide: WPCWAALGELCDLD
B39 returned a half-inhibitory concentration (IC50) in assay [1] of under 100 µM.

B40: SEQ ID NO 2849 (peptide)
peptide: SMDQDCYFAQVGELCVLFNQ
In the case of B40, the half-inhibitory concentration (IC50) in assay [1] is under 100 µM.

B41: SEQ ID NO 2890 (peptide)
peptide: WPCWLGELCDLD
As to B41, in assay [1], the IC50 was under 100 µM.

B42: SEQ ID NO 2869 (peptide)
peptide: QFVKDCFLAQVGDLCELFLW
B42 returned an IC50 in assay [1] of under 100 µM.

B43: SEQ ID NO 2863 (peptide)
peptide: AHFYDCFWAKAGELCDLWPS
modifications: disulfide 6-15 (inferred)
In the case of B43, in assay [1], the IC50 is under 100 µM.

B44: SEQ ID NO 2867 (peptide)
peptide: HWVRDCFLAKVGELCDLFLW
In turn, B44 yielded an IC50 in assay [1] of under 100 µM.

B45: SEQ ID NO 2878 (peptide)
peptide: WYTCMMDWLGVHCELE
Consider B45, for which the half-inhibitory concentration (IC50) in assay [1] was under 100 µM.

B46: SEQ ID NO 2876 (peptide)
peptide: EFFHDCYVARVGELCDLFGW
B46 yielded an IC50 in assay [1] of under 100 µM.

B47: SEQ ID NO 2880 (peptide)
peptide: YWCSVWQLGSVCEMNNEETQ
Turning to B47, the IC50 in assay [1] was under 100 µM.

B48: SEQ ID NO 2875 (peptide)
peptide: YSFKDCYFAKVGELCELFLW
The molecule B48 displayed an IC50 in assay [1] of under 100 µM.

B49: SEQ ID NO 2877 (peptide)
peptide: SYLCWLDHWGVICEED
The molecule B49 gave an IC50 in assay [1] of under 100 µM.

B50: SEQ ID NO 2858 (peptide)
peptide: ELLVDCFKVKVGELCDLFFG
modifications: disulfide 6-15 (inferred)
For the molecule B50, the IC50 in assay [1] was under 100 µM.

B51: SEQ ID NO 2852 (peptide)
peptide: YDCYIAQVGELCDI
Take B51: the IC50 in assay [1] is under 100 µM.

B52: SEQ ID NO 2851 (peptide)
peptide: SNWHDCLFAQVGELCDLPGS
modifications: disulfide 6-15 (inferred)
For B52, the IC50 in assay [1] was under 100 µM.
